Measured values as given in patent US20180036256.

Assays:
[1] = biological target: GST-LSD1 K114A (UniProt O60341)
[2] = biological target: GST-LSD1 (UniProt O60341)

## GST-G9A aa786-1210
[1]
  methylation at K114 in vitro (methylation assay, Western blot with anti-LSD1 K114me2): GST-LSD1 but not GST-LSD1 K114A is methylated at K114 by G9A in the presence of SAM
[2]
  methylation at K114 in vitro (methylation assay, Western blot with anti-LSD1 K114me2): GST-LSD1 but not GST-LSD1 K114A is methylated at K114 by G9A in the presence of SAM
